# Measurements reported in publication PMC6018217, “3-Hydroxyphthalic Anhydride- Modified Rabbit Anti-PAP IgG as a Potential Bifunctional HIV-1 Entry Inhibitor” (Frontiers in Microbiology, 2018).
# Target: the molecule itself
# Assay: amyloid fibril formation (ThT fluorescence, Congo red, TEM, CD); PAP248-286 alone at 3 mg/ml in PBS, agitated at 1,400 rpm, 37°C, 0-48 h; fibrils read by ThT fluorescence, Congo red staining, negative-stain TEM and CD
protein,measurement,value
"GIHKQKEKSRLQGGVLVNEILNHMKRATQIPSYKKLIMY (peptide, UniProt P15309 248-286, looked up, Forms SEVI amyloid fibrils when agitated at 3 mg/ml in PBS, 37°C; also called SEVI; SEVI fibrils; source: synthetic peptide (Fmoc solid phase, GL Biochem, HPLC purified)) [Peptide PAP248-286 (amino acid residues 248-286 of prostatic acidic phosphatase)]",binding result,binds
